Measurements reported in article PMC12543280.

B1: C. elegans APE-1 (sole ASPP homolog), endogenous, tagged with GFP and 3xflag [C. elegans] / C. elegans GSP-2 (PP1 homolog), endogenously HaloTagged [modified: JF646 dye on the HaloTag (single-molecule assay); JFX646 dye on the … (parent)
chain 1: MVTTSSGGGIGYPANNGVTQVSLIHSSDSVRTVSTAPIYRPTSSMASTMAHKSSTAPFISANQRMSKPPVRVVAQPPPPHPQALSQQYHQQNPMMMYSAPNTRPHVIPTMQVQPTMAAQIKRNNPVNAQFQNPSEMIADYGVKPQSVEMVQRVRAVRRQVADEETELRRLRELEHETAQLQNKNYGRERELNVQGSMLKEAQLELRNASMRAQSLNKHLEEMYRRRQTAAAAALVEQRKMQQHQILLARAANQVSTQEVIRPRASVEPFQVNNTQQQQPSPQMMKSEEFSEKRDLNGQTGSYDAIDGSGDHQKIPTEPSYLAPCKENQQKYSELSKMASTDPHSNHSSPSTSSQKAPTLITFSPPSFEQKINSSTMTRDSPFVERPTSFGDSLDESRLRSGKTDLVSLRSDSLKATKRRSWAASEGTSMSEAEMIHRLLDEQRRGRSHFIPQLPTSQEEPSAITSETYAEEVVNSESKQVATSSDSTNNLELPTEQMVLGSDTTTEEDASSCSTRSDDGQNLEMEVAIERRTVKGILRRPNEKMNKGRIEFDPLALLLDAALEGELDLVRSSASKLTDVSQANDEGITALHNAICAGHYEIVRFLIENDADVNAQDSDGWTPLHCAASCNNLPMVRQLVEGGGCVLASTLSDMETPVEKCEEDEDGYDGCLKYLSAAHNSTGSINTGKVYAAYGYEAAFEDELSFDAGDELTVIEKDKVDKNWWTCEKNNGEKGQVPRTYLALYPSLKYRKKLNFVMFDLPLESNNNVE
chain 2: MDVEKLNLDNIISRLLEVRGSKPGKNVQLTESEIKGLCQKSREIFLSQPILLELEAPLKICGDVHGQYYDLLRLFEYGGFPPESNYLFLGDYVDRGKQSLETICLLLAYKIKYPENFFLLRGNHECASINRIYGFYDECKRRYNIKLWKTFTDCFNCLPVAAIIDEKIFCCHGGLSPDLQSMEQIRRIMRPTDVPDQGLLCDLLWSDPDKDVTGWGENDRGVSFTFGPEVVAKFLHKHDLDLICRAHQVVEDGYEFFAKRQLVTLFSAPNYCGEFDNAGSMMTVDETLMCSFQILKPADKKKYPYGAGGVGSNRPVTPPRNAPAAQPKKGAKK

How the values were obtained:
[1] = variants of: B1; test: single-molecule photobleaching analysis by TIRF microscopy; conditions: with C. elegans GSP-2 (PP1 homolog)
[2] = variants of: B1; test: MudPIT analysis of 3xflag immunoprecipitations from whole-worm lysates; conditions: with C. elegans GSP-2 (PP1 homolog) in whole-worm lysates of the MudPIT experiment [C. elegans (endogenous in whole worms)]; for response (% of total protein): parent: 10.8; for screen value: parent: 20

Variant | screen value ([1]; p = 0.008 vs APE-1, read off a plot) | response (% of total protein) ([2]; bait recovered in same sample: 0.22 % of total protein (wild-type bait 0.54)) | screen value [2] | screen value ([1]; p=0.531 vs APE-1, read off a plot) | response (% of total protein) ([2]; bait recovered in same sample: 0.12 % of total protein (wild-type bait 0.54))
chain 1 N583K | 34% | 0.87 | 4 | – | –
chain 1 H591Y | – | – | 7 | 37% | 0.87
